Laboratory results as given in article PMC7611929 (Nature structural & molecular biology, 2021).

B1: TRIM21 coiled-coil (T21CC235; residues 129-235) (domain or fragment, UniProt P19474 129-235, looked up)
chain: EEAAQEYQEKLQVALGELRRKQELAEKLEVEIAIKRADWKKTVETQKSRIHAEFVQQKNFLVEEEQRQLQELEKDEREQLRILGEKEAKLAQQSQALQELISELDRR
B2: TRIM21 RING-Box-Coiled-Coil (T21RBCC; residues 1-235) (domain or fragment, UniProt P19474 1-235, looked up)
chain: MASAARLTMMWEEVTCPICLDPFVEPVSIECGHSFCQECISQVGKGGGSVCPVCRQRFLLKNLRPNRQLANMVNNLKEISQEAREGTQGERCAVHGERLHLFCEKDGKALCWVCAQSRKHRDHAMVPLEEAAQEYQEKLQVALGELRRKQELAEKLEVEIAIKRADWKKTVETQKSRIHAEFVQQKNFLVEEEQRQLQELEKDEREQLRILGEKEAKLAQQSQALQELISELDRR

Assays:
SEC-MALS = target: the molecule itself; assay: SEC-MALS
AUC = target: the molecule itself; assay: AUC

Row | Protein | stoichiometry N (SEC-MALS) | binding result (AUC)
1 | B1 | 2 | –
2 | B2 | – | binds
